Source: US20100048468A1 (Amgen, published 2010)
Positions count from the first letter of the chain named. Where two headings read alike, the source gives them in different places. Non-standard residues stand in square brackets, D forms with d. Groups on a side chain read outwards from the residue. Primed or numbered codes have the meaning given here. No end group written: not given here. maleimide = maleimide group of a PEG-maleimide, coupled to the cysteine thiol (thioether); mPEG40k‑branched = branched 40 kDa PEG (2 × 20 kDa) maleimide, attached to the Cys thiol; mPEG‑maleimide = 30 kD linear mPEG-maleimide attached to the Cys; mPEG 20 kDa = 20 kD mPEG-maleimide, thioether-linked to the Cys; branched PEG 40 kDa = branched polyethylene glycol of 40 kDa; branched PEG 40 kDa″ = 40 kDa branched poly(ethylene glycol); Aib′ = alpha aminobutyric acid (source's wording)

Assays:
[1] = target: T1, human GLP-1 receptor (human, UniProt P43220 24-463); assay: 125I-GLP-1 displacement, membranes of CHOK1 cells expressing human GLP-1 receptor
T1 construct: whole, on cells
Description: (§1) Membrane Preparation. […] Cells were sedimented at 1500 rpm for 10 minutes. The resulting pellets were homogenized in 15 mls of ice cold sucrose buffer (25 mM Tris-HCl, 0.32 M Sucrose, 0.25 g/L, sodium azide, pH 7.4) with a motorized, glass fitted, Teflon homogenizer. The homogenate was centrifuged at 48,000×g at 4° C. for 10 minutes, resuspended in 25 ml assay buffer (50 mM Tris-HCl, 5 mM MgCl₂, 10 mg/ml protease-free BSA, 0.1 mg/ml STI, and 0.1 mg/ml Pefabloc, pH 7.4) with a Tissue-Tearor (Biospec Products), then centrifuged again at 48,000×g for 10 minutes. The pellets were homogenized for a third time in 15 ml assay buffer using the Tissue-Tearor and again centrifuged at 48,000×g for 10 minutes. The resulting pellet was resuspended in assay buffer at a wet weight concentration of 4 mg/ml.
(§2) Ligand Binding Assay. Binding assays were performed in 96-well U-bottom plates. […] The reaction was terminated by rapid filtration through Unfilter-96 GF/C glass fiber filter plates (FilterMate 196 Packard Harvester, PerkinElmer, Shelton, Conn.) pre-soaked in 0.5% polyethylenimine, followed by three washes with 300 μl of cold 50 mM Tris-HCl, pH 7.4. Bound radioactivity was determined using a TopCount microplate scintillation and luminescence counter (Packard Instrument Company, PerkinElmer, Shelton, Conn.). Nonlinear regression analyses of resulting concentration curves were performed using GraphPad Prism (GraphPad Software, Inc., San Diego, Calif.).
In vitro experiments were conducted to determine receptor binding and potency for a class of molecules having a glycine substitution at position 8, a cysteine substitution at position 22 and a variable C-terminus.

[2] = target: T2, mouse GLP-1 receptor (mouse, UniProt O35659 22-463); assay: cell-based or functional assay
T2 sequence (looked up): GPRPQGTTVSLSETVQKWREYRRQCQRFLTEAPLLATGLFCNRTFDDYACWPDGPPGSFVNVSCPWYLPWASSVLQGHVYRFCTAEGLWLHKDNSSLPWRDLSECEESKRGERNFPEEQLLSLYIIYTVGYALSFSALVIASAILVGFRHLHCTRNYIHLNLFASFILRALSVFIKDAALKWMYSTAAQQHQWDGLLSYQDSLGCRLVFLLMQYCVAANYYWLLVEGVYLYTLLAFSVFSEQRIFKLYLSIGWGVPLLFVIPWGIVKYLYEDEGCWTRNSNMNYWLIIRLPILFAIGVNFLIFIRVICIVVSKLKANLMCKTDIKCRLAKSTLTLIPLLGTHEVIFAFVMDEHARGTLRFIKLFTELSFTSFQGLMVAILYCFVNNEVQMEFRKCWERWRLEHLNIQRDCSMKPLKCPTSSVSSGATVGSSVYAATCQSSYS

[3] = target: T1, human GLP-1 receptor; assay: cell-based or functional assay
[4] = target: T2, mouse GLP-1 receptor; assay: cell-based or functional assay; remark: listed apart in the source
[5] = target: T1, human GLP-1 receptor; assay: cell-based or functional assay; remark: listed apart in the source
[6] = target: T1, human GLP-1 receptor; assay: 125I-GLP-1 displacement, membranes of CHOK1 cells expressing human GLP-1 receptor; remark: listed apart in the source
Description: as §1, §2
The pegylated molecules were conjugated at the cysteine at position 38.

[7] = target: T1, human GLP-1 receptor; assay: as above; remark: listed apart in the source
Description: as §1
as §2, with “Calif.). […]” for “Calif.).”

[8] = target: T2, mouse GLP-1 receptor; assay: cell-based or functional assay; remark: listed apart in the source
[9] = target: T1, human GLP-1 receptor; assay: cell-based or functional assay; remark: listed apart in the source
[10] = target: T1, human GLP-1 receptor; assay: cell-based or functional assay; remark: listed apart in the source
Target sequence in this assay (P43220 24-463): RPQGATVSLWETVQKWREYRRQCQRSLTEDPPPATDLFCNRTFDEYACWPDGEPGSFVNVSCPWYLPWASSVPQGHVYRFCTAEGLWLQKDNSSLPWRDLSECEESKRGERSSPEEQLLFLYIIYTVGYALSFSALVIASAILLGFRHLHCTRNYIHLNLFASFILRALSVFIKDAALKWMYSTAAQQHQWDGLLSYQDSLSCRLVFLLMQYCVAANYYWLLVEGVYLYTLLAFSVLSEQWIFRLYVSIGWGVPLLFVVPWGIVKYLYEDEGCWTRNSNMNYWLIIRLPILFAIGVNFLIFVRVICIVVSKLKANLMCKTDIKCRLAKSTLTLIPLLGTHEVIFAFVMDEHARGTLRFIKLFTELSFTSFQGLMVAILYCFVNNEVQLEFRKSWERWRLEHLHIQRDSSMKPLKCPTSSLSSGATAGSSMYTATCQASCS

[11] = target: T3, mouse GLP-1 receptor (mouse), O35659; assay: cell-based or functional assay
T3 chain: T2 sequence (looked up)

[12] = target: T1, human GLP-1 receptor; assay: cell-based or functional assay; remark: listed apart in the source

HGEGTFTSDVSSYLEGCAAKEFIAWLVKGRGSSGAPPPS (Unconjugated peptide) [HGEGTFTSDVSSYLEGCAAKEFIAWLVKGRGSSGAPPPS (SEQ ID NO: 7)]
IC50 [1]: 100 nM | EC50 mouse [2]: 0.8 nM | EC50 human [3]: 0.1 nM

B1: cgGLP-14 (SEQ ID NO: 7 + 20k PEG dimer) (peptide)
peptide: HGEGTFTSDVSSYLEGCAAKEFIAWLVKGRGSSGAPPPS
modifications: not fully specified (residue 17); also: dimer: two peptides on one forked PEG-(maleimide)2
IC50 [1]: 300 nM | EC50 mouse [2]: 4 nM | EC50 human [3]: 0.6 nM

B2: cgGLP-15 (SEQ ID NO: 8 + 20k PEG dimer) (peptide)
peptide: B1 peptide with V27K, K28N, R30G, G31P
modifications: not fully specified (residue 17); also: dimer: two peptides on one forked PEG-(maleimide)2
IC50 [1]: 300 nM | EC50 mouse [2]: 2 nM | EC50 human [3]: 0.8 nM

HGEGTFTSDVSSYLEGCAAKEFIAWLKNGGPSSGAPPPS (Unconjugated peptide) [HGEGTFTSDVSSYLEGCAAKEFIAWLKNGGPSSGAPPPS (SEQ ID NO: 8)]
IC50 [1]: 100 nM | EC50 mouse [2]: 0.3 nM | EC50 human [3]: 0.07 nM

HGEGTFTSDVSSYLEGC(PEG 20 kDa)AAKEFIAWLVKGRGSSGAPPPS [cgGLP-12 (SEQ ID NO: 7 + 20k PEG monomer)]
IC50 [1]: 1000 nM | EC50 mouse [2]: 8 nM | EC50 human [3]: 1 nM

B3: H[Aib]EGT FTSDVSSYLEGQAAKEFIAWLVKGRGCSGG (SEQ ID NO: 11) (peptide)
peptide: HXEGTFTSDVSSYLEGQAAKEFIAWLVKGRGCSGG
modifications: Aib (2-aminoisobutyric acid) at position 8 (GLP-1 numbering; residue 2 of the entry)
notes: Unconjugated peptide
EC50 mouse [4]: > 50 nM | EC50 human [5]: 4 nM | IC50 [6]: 100 nM

B4: cgGLP-17 (SEQ ID NO: 11 + 20k PEG) (peptide)
peptide: B3 peptide
modifications: Aib at position 8 (residue 2 of the entry); 20k PEG on the cysteine at position 38 (GLP-1 numbering; residue 32 of the entry)
EC50 mouse [4]: > 100 nM | EC50 human [5]: 20 nM | IC50 [6]: 1000 nM

B5: H[bAla]EGT FTSDVSSYLEGQAAKEFIAWLVKGRGCSGG (SEQ ID NO: 12) (peptide)
peptide: B3 peptide
modifications: bAla (beta aminopropionic acid) at position 8 (GLP-1 numbering; residue 2 of the entry)
EC50 human [5]: > 100 nM

H[Aib′]EGTFTSDVSSYLE[Aib′]QAAKEFIAWLVKGRGC(mPEG 20 kDa)SG [cgGLP-20 (SEQ ID NO: 25 + 20k mPEG)]
IC50 [7]: 30 nM | EC50 mouse [8]: 1.5 nM | EC50 human [9]: 0.099 nM

HGEGTFTSDVSSYLEGQAAKEFIAWLVKGRGC(PEG 30 kDa)SG [cgGLP-16 (SEQ ID NO: 10 + 30k PEG)]
EC50 mouse [4]: 4 nM | EC50 human [5]: 0.39 nM

HGEGTFTSDVSSYLEGC(PEG 30 kDa)AAKEFIAWLVKGRG [cgGLP-7 (SEQ ID NO: 6 + 30k PEG)]
EC50 human [10]: 0.2 nM | EC50 mouse [2]: 2.9 nM

HGEGTFTSDVSSYLEGC([maleimide-mPEG 20 kDa])AAKEFIAWLVKGRG [cgGLP-1 (SEQ ID NO: 6 + 20K PEG)]
EC50 human [10]: 12 nM | EC50 mouse [2]: 245 nM

HGEGTFTSDVSSYLEGQAAKEFIAWLVKGRGC(PEG 30 kDa)SG [cgGLP-8 (SEQ ID NO: 10 + 30k PEG)]
EC50 mouse [4]: 3 nM | EC50 human [5]: 0.4 nM

HGEGTFTSDVSSYLEGC(branched PEG 40 kDa)AAKEFIAWLVKGRG [cgGLP-2 (SEQ ID NO: 6 + 40k branched PEG)]
EC50 human [10]: 0.7 nM | EC50 mouse [2]: 3.6 nM

HGEGTFTSDVSSYLE[Aib′]QAAKEFIAWLVKGRGC(mPEG‑maleimide)SG-NH2 (also: PEG on Cys32: 30k, but the text says branched 40 kDa) [cgGLP-28 (SEQ ID NO: 22 + 30k PEG)]
IC50 [7]: 71 nM | EC50 mouse [8]: 0.8 nM | EC50 human [9]: 0.1 nM

HGEGTFTSDVSSYLEGQAAKEFIAWLVKGRGC(branched PEG 40 kDa″)SG [cgGLP-5 (SEQ ID NO: 10 + 40k branched PEG)]
EC50 mouse [4]: 1.5 nM

HGEGTFTSDVSSYLE[Aib′]QAAKEFIAWLVKGRGC(mPEG‑maleimide 20 kDa)SGG-NH2 [mgGLP-15 (SEQ ID NO: 24 + 20k PEG)]
IC50 [7]: 100 nM | EC50 mouse [8]: 1.8 nM | EC50 human [9]: 0.2 nM

HGEGTFTSDVSSYLE[Aib′]QAAKEFIAWLVKGRGC(mPEG40k‑branched)SG-NH2 [cgGLP-29 (SEQ ID NO: 22 + 40k branched PEG)]
IC50 [7]: 800 nM | EC50 mouse [8]: 1 nM | EC50 human [9]: 0.15 nM

HGEGTFTSDVSSYLEGQAAKEFIAWLVKGRGCSG [HGEGTFTSDVSSYLEGQAAKEFIAWLVKGRGCSG (SEQ ID NO: 10)]
EC50 mouse [4]: 0.32 nM | EC50 human [5]: 0.05 nM

B6: cgGLP-6 (SEQ ID NO: 10 + 8k PEG dumbbell) (peptide)
peptide: HGEGTFTSDVSSYLEGQAAKEFIAWLVKGRGCSG
modifications: not fully specified (residue 32); also: dimer: two peptides on one mal-PEG-mal, one at each end
EC50 mouse [4]: 0.8 nM | EC50 human [5]: ~0.1 nM | IC50 [6]: 11 nM

HGEGTFTSDVSSYLEGQAAKEFIAWLVKGRGCSG (not fully specified (residue 32), also called cgGLP-09A) [cgGLP-4 & mgGLP-09A (SEQ ID NO: 10 + 20k PEG)]
EC50 mouse [4]: 1.8 nM | EC50 human [5]: 0.23 nM | IC50 [6]: 130 nM

HGEGTFTSDVSSYLEGCAAKEFIAWLVKGRG (modifications not checked) [cgGLP-9 (SEQ ID NO: 6 + 20k PEG dimer)]
EC50 mouse [11]: 9 nM | EC50 human [10]: 1 nM

B7: cgGLP-3 (SEQ ID NO: 6 + 8k PEG dumbbell) (peptide)
peptide: HGEGTFTSDVSSYLEGCAAKEFIAWLVKGRG
modifications: not fully specified (residue 17); also: dimer: two peptides on one mal-PEG-mal, one at each end
IC50 [1]: 84 nM | EC50 mouse [2]: 5.7 nM | EC50 human [3]: 0.2 nM

B8: [Gly8]GLP1(7-37) cyclo[Glu18-Lys22] (SEQ ID NO: 39) (peptide)
peptide: B7 peptide with C17Q, A18E, F22K
modifications: side-chain cyclic lactam between Glu18 and Lys22 (counted on the peptide; GLP-1 positions 24 and 28); C-terminal amide
EC50 human [12]: 0.8 nM

B9: [Gly8]GLP1(7-37) cyc[Glu15-Lys19] (SEQ ID NO: 36) (peptide)
peptide: B7 peptide with C17Q, A19K
modifications: side-chain cyclic lactam between Glu15 and Lys19 (counted on the peptide; GLP-1 positions 21 and 25); C-terminal amide
EC50 human [12]: 0.15 nM

HGEGTFTSDVSSYLEGCAAKEFIAWLVKGRG (Unconjugated peptide) [HGEGTFTSDVSSYLEGCAAKEFIAWLVKGRG (SEQ ID NO: 6)]
IC50 [1]: 70 nM | EC50 mouse [2]: 1.4 nM | EC50 human [3]: 0.24 nM

B10: [Gly8]cyclo[21-26] GLP1(7-37)-amide (SEQ ID NO: 42) (peptide)
peptide: B7 peptide with C17Q
modifications: side-chain cyclic lactam between positions 21 (Glu) and 26 (Lys) (GLP-1 numbering; residues 15 and 20 of the entry); C-terminal amide
EC50 human [12]: 0.6 nM
